Measured values published in the DeepSol protein solubility set.

Test: soluble on expression in E. coli; label from the status in PepcDB or PDB records

Sequence	soluble on expression in E. coli
MSLRSAYLSTESKIVLDVISVSDTHGWIYGHRHLPEYGDYGTLLSYIERTRQKALESEGRSVLAVDAGDLVEGTGLSDLTKVKGEKILEAASYIGFDLQTIGNHESYYKETTDYIHSKVEALFGDRYITTNVFMRDTNVPVGSGRYKYLVLPTGLRVLMLGFLFHTSPYDGVYTIPAREAIASQEITGVLEKYKYQTDLLVLACHIPTYDLEISEIVTELRAFYNQINYTIPIIIIAGHYHQIKNTYCMDGQDKQCYIVEGGCYLRFMQHVTYEFKPMTYSHEGNTYTGYQFSSVDYSLPYNEGHHHHHH	soluble
MTTALHITLITETFPPEINGVANTLGRLCEGLRARGHQVELVRPRQGCDQSRASDEALLLCRGWPLPGYPGLQWGQSSMHKLLRRWKRQRPDVLYIATEGPLGLSALRAAKRLGISVVSGFHTNFQQYSSQYGLGLLTRLLTHYLRWFHNRSQLTLVPSASQHLELERRHFERLALLSRGVDSQLFHPAKRLDTLRADWGLGTDDLAVIHVGRLAQEKNLGLLKRCFERLQATYPQRRMKLIVVGDGPQRGALEKSLPEALFCGSQRGEALAAHYACGDLFLFPSLTETFGNVVLEALASGLAVVAYDQAGAAQHIRHGYNGVLAMPGDESAFCDAASWLLEEPETLRRVRLNARQHASRQGWAAVIEQFEDRLRSACEHGPAEDYEGLIEATVKPRSAVETLGTARGLPPSPPGAGSLEHHHHHH	soluble
MRKISEMPKFERPREKLLERGVGYLSDLELLAVLIGNGTKDCSVMNVAGKVLKLLDKGCDRVSARVLQEIEGVGPAKSAVIAAALEFARRRIRPEGIKITSACDILPLISYLANRKQEHFVCVSLNGASEVIATRVVSVGLVNNVQVHPREVFADPITDRATAVIVAHNHPSGSVAPSQEDIEVTKRLKDAGNTLGIKLIDHIIFSRKGYFSFLENGQMPD	soluble
MFTIEHLNFAWLQVRAGSKSAGVDGISVDLFESMATEQLQNIAYQLKEETYTANPAKGFYIPKKNGTKRLIGIHTVRDRIIQRLLLDELYFPLEDTFLDCSYAYRPGHSIQQAVQHLYGYYQYQPKWIIKADVADFFDNLSWALLLTYLEELSLEPSLLQLLEQQLKSGIIIAGQYRNFGKGVLQGGILSGALANLYLTSFDRKCLSQGINLVRYGDDFVIACNSWLEANRILDKITGWLGEVYLTLQPEKTQIFTPNDEFTFLGYRFAGGEVYAPPPPEPVRPGEWVINDSGTPYFRLKPKPRKPVSLEHHHHHH	not soluble
MAHHHHHHMQPLLRVPRAVHPHVERPLLGYLPPPVSHFSTKRNNCTGYDHPRGAPPQLNKTYHSQANFRDTKMEFCQVDLDEFCYKQFDSTKKSCSFIPYDKNEFLDKVNELIRQKKIKVVPGYAGFCKHIFVENFTEATVETIEINNKNRDLIKTDYISRRDNELPVLIRWISKKDVKDIIKAKYLDLILYSREQIEKENKETKTVPNRKSNCLYSIICIKPQNVDYELPMTPITMLRNTLISEGGSGINLNRDKYLESVKYWRHHVSIIDN	soluble
AQHPPYCRNQPGKCQIPLQSLFDRATTVANYNSKLAGEMVNRFDEQYGQGINSESKVINCHTSSITTPNSKAEAINTEDKILFKLVISLLHSWDEPLHHAVTELANSKGTSPALLTKAQEIKEKAKVLVDGVEVIQKRIHPGEKNEPYPVWSEQSSLTSQDENVRRVAFYRLFHCLHRDSSKIYTYLRILKCRLTSCET	soluble
MMNISHKDHHNDQEISDANRDWWDSDAQRYHNDHAAYLNGFHWCPEMLPEREAHLLGDISGLNVLEIGCGSAPCSRWLFDNYDAFVTGFDLSMGMLRHSPTDVPLTQADAVNLPYKDSSFDIAFSAFGAFPFIENLGPVLKDIARCLKPHGKLVFSTNHPMRWIFPDDPTEIGLCAELSYFDRSYTERDKNGKITYAEFHRTMGDWIELLNASGFIIDRLIEPEWPTNLTETWGQWSPLRGRIFPGTAIFVTHCR	not soluble
MAYGVMSWWDYGHYIETLGHRMPNANPFQAGIGGRRGSINETNVPGAAPFLTAQSEEEATEVLESIHPDPEKSGARYIMSDERMAVDIFMAMPEWTLDTEGYMQPYWTGDGYQYLPSKRYFDSMESRLHFLDGNGLKQYRLVYETWAYQTQEAGYKQVYNFLYGSSIPEVDSGYVKIFEYVKGAKITGTVSPNETVNINTTILTGQGRTFEYSQLEHHHHHH	not soluble
MGSSHYHHHHSSGLVPRGSHMAEKPISPTKTRTRFEDIQAHYDVSDDFFALFQDPTRTYSCAYFEPPELTLEEAQYAKVDLNLDKLDLKPGMTLLDIGCGWGTTMRRAVERFDVNVIGLTLSKNQHARCEQVLASIDTNRSRQVLLQGWEDFAEPVDRIVSIEAFEHFGHENYDDFFKRCFNIMPADGRMTVQSSVSYHPYEMAARGKKLSFETARFIKFIVTEIFPGGRLPSTEMMVEHGEKAGFTVPEPLSLRPHYIKTLRIWGDTLQSNKDKAIEVTSEEVYNRYMKYLRGCEHYFTDEMLDCSLVTYLKPGAAA	soluble
MGSDKIHHHHHHMTIFSVRHITSYRYKRPVEFGEHRLMFRPRDSFDQTLLSSHLDVDPKPDYIRWIHDVFGNCVALVGFTGKARELCFGTNIRLDHTQQVEMDLQIDAEALHYPFAYDPEEVVDLERTIKRHFADPDDEVGRWTRQFVRIGQPTETGRLLMTLCYAIHESFIYARRLEHGTQTPLETLRLRRGTCRDFALLMMEAARSLGLAARFVTGYIYVPDRDGSTKLGGGSTHAWCQVYLPGAGWVEFDPTNGIVGNRDLIRVGVARDPKQAVPLSGSYDGDASDFDTMSVQVNVTTDKLSDTAA	not soluble
MGSDKIHHHHHHMNNFNNEIKLILQQYLEKFEAHYERVLQDDQYIEALETLMDDYSEFILNPIYEQQFNAWRDVEEKAQLIKSLQYITAQCVKQVEVIRARRLLDGQASTTGYFDNIEHCIDEEFGQCSIASNDKLLLVGSGAYPMTLIQVAKETGASVIGIDIDPQAVDLGRRIVNVLAPNEDITITDQKVSELKDIKDVTHIIFSSTIPLKYSILEELYDLTNENVVVAMRFGDGIKAIFNYPSQETAEDKWQCVNKHMRPQQIFDIALYKKAAIKVGITDV	not soluble
MARLSDLIEAFIKQLIDDTDGTIEIQRNELASQFNCVPSQINYVIDTRFTTERGYYVESRRGGGGYIKITRVSIGHEGKNYLMHIINSMGDSISQQSAHVFINNFVDHNVVTEKEAMLLKAATSDKALAAVPVESRGQIRASILKNMLVCLLV	soluble
MSLKRKYEDHFKEQAVRLSFERGEISSVERELGINRTSLGKWRKKYEHLKLAPKDAVIIELNKKIKDSLLTLEILKNGSEFAAQGKVMTKRFIENNSSKYPIGKMCALLQISQRAYYKLKKKEISDKQSQIILLKEEVAAVYYEFKKTYGYRKIAKVLQCRGFKVGESQIRIYMNALGLRRRAKSRFTITTDSVHNHYIAQNILNREFTINQPAKAWVSDITYIAAEKGFLYLTIVLDLFDRKIIGWSLADSMSTKETTLPAWEMAVKNRNITQDLIFHSDRGVQYANKIFTETLDSYKFVRRSMSRKQNHNDNAVSESFFGNLKRELINGNKPLPREQMRVQVYQYIENWYNKKRRHSYLNYRTIEEFDKLHEGHHHHHH	not soluble
MSTQEDFLKRLESVTSRLEAIAGQKPALAPKPTNLGGPSAYSLHFFFALQFYFSSSPPTSTMDSLYYSAPRPFNKYPRGYRPVTDSTQDLRSFGGGLRPSSSWSSFPQQVVIDQRSATLPHFPSSCVSPVSPTSPVDRNTNYWTAEEPPRSRRPIRSESNSTLFDNNFSPRELSPLSVASEYCNNPQPASMYGHRSVQSPVPAFQDAPPRGYDNVPPPQSYKQPTHPSPSQRETDFLRNLQRQKAEAHNMSSSWYAGDQSSRQTDFGTLPSPQHYNSNSSDHHPPRRLAKTQSDLSFDSLNNTYFNNTSNHTPSNTFLNHSTVDSHNNSSGQLHNSINNYTASTNGNQGHRLDGFFRNRVIEPNWMTDPPPPKSFREDYIIRNAPLNSNLNSDFERFRLEPTYREPRGNSLVSEQPNFRSYHNDEPTQEQPNPRYQRSSSNFMQQRDPSPVRSPPIISYAQQSNPFSFPNPINQVNYNQEDHSSRVSTGGYQDRRVAQAPKEATTNVYQNVPAAAAVNFREKERPTSQYLESNRNSAAFPNEPIKLTNDRVLRIHPHQQVQDQYHHHQMPEEPHYPQPHQPIQQSQRARIQSPLRDFARLTSPIREVAPQPYHPPQAQNQNQNPERIFSPVESKVFNRSGPTVINGFTSNRHTYNSHTDDFDSRNRRDSSQPPVAIIEPNINVHMPSDPMPYNKPHFGHGHGHSNGNNNVHSVKPTSHYSNPTFSPTSTFSPNSNYDNDNDSDLDIEEMARRALPRYLRDNEKTGRHRNLYGDNLHGILIKNPSLHRSSSKKVVFIDQNKASAAASAGDSGEVPAHVRAYDDAIEEPLANWSKLTDQLGGDLAAVKPKVLAMFASMRNYLWSAAGKSEPSAEEAQKMLTPVINLLGEINNFKDTKRKTPHWNHLNSVAEALPALGWVTVKKTPAPYVKEFIEAAQFYINPILREFKETDPRHVEWTKAWKAVFEEMQKFVRQVHTTGLVWNSAPGAAPDASASAPSAAAPSAPKAPAGPGGPPPPPPPPPADFFANIAPPPVDADKASRDALFASLNQGEGVTSRLKKVTADMQTHKNPNLRGTAVVPAAGASQGGSSPAKPAAPVRKPPHKELENGKQWIVEYFVNDPNIVLDVADKKQTVYIYRCENSVIKVNGKANSITLDGCKKTSVVFDALVAQCETVNCQSVQIQTLGELPTLSIQKTDGCQVYLSKVAQGCEIVTSKSSEMNISVQTNDDGDYSEFPVPEQFKTTFVNGKLVTVVSDIC	not soluble
ITEDEIRTLMEQGADEGVFDRAEQELVENIFRLDNRKASAVMTPRKDVVILDLEDGPERNRELLLGHPFSHFPVCRGDTDQVIGMLNAKTLLDRLLRGEALDFAAELSPPLYVPSTCSLMQLLEQFKQARSHSALVVDEYGELEGLVSINNVMEAIVGDLPAIDGEEDEIV	not soluble
MAIYYNGLKIESNEEVYEPAEDTFLLAESLLDEVKSDDIVLDVGTGTGILALLAARRARFVVGLDINEKAINLAWKNAKINGIKNVVFILSDLFENIRGTFDLIVFNPPYLPGEEIKDKVDLALIGGKTGGEVISRFLGSVKDYLSSRGRILLIYSSLTGLDVEKAFKERGFSTSIVKRRRFFFEELYVMKAELSSRL	soluble
MAHHHHHHMLRVSCRFFGALQEIFSRGQGVWNLDFGNSPTTEDLIFNSAPKTSTPPFHVLDLEGNIVNKINEPVVPKETLVKIMETMIRSNTIDNILLEAQRQGRISFYLTALGEEATVVGTAAGLEIRDEAFLQYREAGFLLYRGYNIPQLVAQCMGNVEDVLKGRQMPIHYGSRELNVHMVSSPLATQIPHAAGAGYAFRLENEELSDESKSRVAVVIFGEGAASEGDFHGGVNFAAATGSNTLFVVRNNGYAISTPARVQYKGDGVLARGIGYGIPSARVDGQDVLAILQAVQQARQIIRTTNQPVLIEALCYRLQHHSSSDDSGMYRSSDEIENFLALSPLDRFEKFLVKRDLWTAEHTGALAKQVREELLQELRRQELLPHWPADVMHDDVYKVKTPDLVKAQKELQAHYERNRGFYGK	not soluble
MKNSLRIPRIIHQTWKTKDVPSPLDQLPQTWKEYLPNWEYILWTDEMNREFVCKHFPDFLEKYDTYPCNIQRADAIRYLLLKVYGGLYVDMDFECLENIEFLLEGSDFIVGKEPDWHAKRFGFEYIICNAFMASTPDNDFINFVCQRLINHSGGKVVNNGFDILDSTGPFLLTHAFNAFPHKEDIRILESKTIYPIGQWEVEKIKNNQIPKEMEERINQAHAIHYFFGTWFGKLEHHHHHH	not soluble
MGSDKIHHHHHHMDHQMEDLLEHWLPLADDAWVLAVITHIQGSSYRKPGAMMLFHEFGQGAGILSGGCLEADLRRHAQNAMLSHQIGCVSYDATDESDASYRLGCGGKVDIMLIPLLKENHDLGLVDIVQAFRKGQSGFYQLPLVPAGSDARSYSAQFYSSENVPFATADFAKAGVLSQPSGDTLIIPIRPRFHLGIFGGGIDAKPVAAIAHSLGWQVSVFDSRTAYARTADFPHAHIVKQSPDDAAALIANLDCAVVMHHNLTLDAAALKVIQPFALKYVALLGPAHRRDKVLSIAALNVDSFSGFFSAPAGLALGGELPSAIALSILAQCHGVLHGAAFSTLDGMMP	not soluble
